Measurements taken from US20070224188A1.

biological target: biotin-labeled soluble FcRn; experiment: FcRn ELISA pH 6.0

Q: Which FcRn pH6.0 (% of wild type) does the source give for anti-CD20 IgG1 P343I (antibody) here?
A: 114

Q: With anti-CD20 IgG1 T307M (antibody) as the substance, how does the FcRn pH6.0 (% of wild type) read?
A: 302

Q: Which FcRn pH6.0 (% of wild type) does the source give for anti-CD20 IgG1 Y373V (antibody) here?
A: 69

Q: With anti-CD20 IgG1 E430R (antibody) as the substance, how does the FcRn pH6.0 (% of wild type) read?
A: 249

Q: With anti-CD20 IgG1 P343R (antibody) as the substance, how does the FcRn pH6.0 (% of wild type) read?
A: 198

Q: For anti-CD20 IgG1 Y373W (antibody), which FcRn pH6.0 (% of wild type) is on record?
A: 75

Q: With anti-CD20 IgG1 I332K (antibody) as the substance, how does the FcRn pH6.0 (% of wild type) read?
A: 146

Q: With anti-CD20 IgG1 E430Q (antibody) as the substance, how does the FcRn pH6.0 (% of wild type) read?
A: 320

Q: With anti-CD20 IgG1 P245R (antibody) as the substance, how does the FcRn pH6.0 (% of wild type) read?
A: 188

Q: With anti-CD20 IgG1 I332S (antibody) as the substance, how does the FcRn pH6.0 (% of wild type) read?
A: 263

Q: Which FcRn6.0 (% of wild type) does the source give for anti-CD20 IgG1 258D376V (antibody) here?
A: 415

Q: For anti-CD20 IgG1 A330K (antibody), which FcRn pH6.0 (% of wild type) is on record?
A: 108

Q: For anti-CD20 IgG1 Y373E (antibody), which FcRn pH6.0 (% of wild type) is on record?
A: 106

Q: anti-CD20 IgG1 S440G (antibody) was tested. Which FcRn pH6.0 (% of wild type) did it give?
A: 101

Q: With anti-CD20 IgG1 A339F (antibody) as the substance, how does the FcRn pH6.0 (% of wild type) read?
A: 120

Q: Which FcRn pH6.0 (% of wild type) does the source give for anti-CD20 IgG1 A431P (antibody) here?
A: 29

Q: With anti-CD20 IgG1 H285N (antibody) as the substance, how does the FcRn pH6.0 (% of wild type) read?
A: 202

Q: anti-CD20 IgG1 P247I (antibody) was tested. Which FcRn pH6.0 (% of wild type) did it give?
A: 79

Q: With anti-CD20 IgG1 P257S (antibody) as the substance, how does the FcRn pH6.0 (% of wild type) read?
A: 184

Q: anti-CD20 IgG1 K248Q (antibody) was tested. Which FcRn pH6.0 (% of wild type) did it give?
A: 38

Q: With anti-CD20 IgG1 256P332E440Y (antibody) as the substance, how does the FcRn6.0 (% of wild type) read?
A: 117

Q: How did the FcRn pH6.0 (% of wild type) turn out when anti-CD20 IgG1 Q311D (antibody) was run?
A: 38

Q: anti-CD20 IgG1 P247M (antibody) was tested. Which FcRn pH6.0 (% of wild type) did it give?
A: 18

Q: With anti-CD20 IgG1 A339M (antibody) as the substance, how does the FcRn pH6.0 (% of wild type) read?
A: 111

Q: anti-CD20 IgG1 K439Q (antibody) was tested. Which FcRn pH6.0 (% of wild type) did it give?
A: 74

Q: For anti-CD20 IgG1 P343T (antibody), which FcRn pH6.0 (% of wild type) is on record?
A: 126

Q: How did the FcRn pH6.0 (% of wild type) turn out when anti-CD20 IgG1 I332L (antibody) was run?
A: 127

Q: With anti-CD20 IgG1 D376E (antibody) as the substance, how does the FcRn pH6.0 (% of wild type) read?
A: 82

Q: Which FcRn pH6.0 (% of wild type) does the source give for anti-CD20 IgG1 M252Y (antibody) here?
A: 964

Q: With anti-CD20 IgG1 T256W (antibody) as the substance, how does the FcRn pH6.0 (% of wild type) read?
A: 14

Q: For anti-CD20 IgG1 D376S (antibody), which FcRn pH6.0 (% of wild type) is on record?
A: 134

Q: Which FcRn pH6.0 (% of wild type) does the source give for anti-CD20 IgG1 N286F (antibody) here?
A: 307

Q: With anti-CD20 IgG1 258D311I (antibody) as the substance, how does the FcRn6.0 (% of wild type) read?
A: 522

Q: anti-CD20 IgG1 Q438K (antibody) was tested. Which FcRn pH6.0 (% of wild type) did it give?
A: 169

Q: anti-CD20 IgG1 I332H (antibody) was tested. Which FcRn pH6.0 (% of wild type) did it give?
A: 129

Q: Which FcRn pH6.0 (% of wild type) does the source give for anti-CD20 IgG1 R292G (antibody) here?
A: 60

Q: For anti-CD20 IgG1 A378N (antibody), which FcRn pH6.0 (% of wild type) is on record?
A: 180

Q: How did the FcRn pH6.0 (% of wild type) turn out when anti-CD20 IgG1 I332V (antibody) was run?
A: 115

Q: For anti-CD20 IgG1 V279Q (antibody), which FcRn pH6.0 (% of wild type) is on record?
A: 181

Q: For anti-CD20 IgG1 T256G (antibody), which FcRn pH6.0 (% of wild type) is on record?
A: 162

Q: For anti-CD20 IgG1 P238V (antibody), which FcRn pH6.0 (% of wild type) is on record?
A: 102

Q: Which FcRn pH6.0 (% of wild type) does the source give for anti-CD20 IgG1 L432R (antibody) here?
A: 38

Q: For anti-CD20 IgG1 G341F (antibody), which FcRn pH6.0 (% of wild type) is on record?
A: 52

Q: anti-CD20 IgG1 D249L (antibody) was tested. Which FcRn pH6.0 (% of wild type) did it give?
A: 15

Q: For anti-CD20 IgG1 E382H (antibody), which FcRn pH6.0 (% of wild type) is on record?
A: 135

Q: For anti-CD20 IgG1 P238Y (antibody), which FcRn pH6.0 (% of wild type) is on record?
A: 74

Q: anti-CD20 IgG1 P238W (antibody) was tested. Which FcRn pH6.0 (% of wild type) did it give?
A: 87

Q: For anti-CD20 IgG1 V279G (antibody), which FcRn pH6.0 (% of wild type) is on record?
A: 256

Q: With anti-CD20 IgG1 286F311I (antibody) as the substance, how does the FcRn6.0 (% of wild type) read?
A: 412

Q: How did the FcRn6.0 (% of wild type) turn out when anti-CD20 IgG1 258D272R (antibody) was run?
A: 383
